The values below come from article PMC8605562, “MSMEG_3955 from Mycobacterium smegmatis is a FMN bounded homotrimeric NAD(P)H:Flavin mononucleotide (FMN) oxidoreductase” (BMC Microbiology, 2021).

Broadly, the stoichiometry N is a count of units in the complex or per binding partner.

The data set deals with the molecule itself. The data set can be described thus: native gel or EMSA; NATIVE-PAGE (12% in the methods, 10% in the legend of Fig. 3a) of purified protein loaded without any treatment, 10 ug (Fig. 3a) or 20 ug each of wild type and mutant (Fig. 2a); band at ~115 kDa against ~36 kDa on SDS-PAGE. A general note: Mobility shift assays separate free from complexed probe on a gel.

B1: MSMEG_3955 from Mycobacterium smegmatis, recombinant wild-type protein (enzyme, Mycobacterium smegmatis mc2 155, UniProt A0QZA6 1-334, looked up)
chain: MNTHFPDTETIHAALALAMRAPSIHNSQPWQWRVGERSVHLYADLDRHLTSTDPDSRDLLLSCGAALHHCVIAFAALGWYASVHRLPNPAEPEHLASIELRRQTPTDLDIALAAAIPRRRTDRRHYSAWPVSHSDIAMMGARAARAGVMLRRVESLSRLQDIVAESIARHAADDGYLRELTAWSGKYASTAGVPARSAPKPEPGAPLSSRMFAGAALKQPDTGAGADEGAVVLALGTADDTRMSRLRAGEATSLILLTATAMGLATCPVTEPLEISETRDAVQAEVFGASAFPQMMLRVGWAPVNADPLPPTPRRHVADAVRWLDGSPFEPESE
notes: MSMEG_3955, Mycobacterium smegmatis mc2 155, NADPH-dependent FMN oxidoreductase of the Acg family; gene amplified from genomic DNA with primers from the ATG to the stop codon (~1005 bp amplicon, ~36 kDa protein); tag removal is not described; also called protein MSMEG_3955; homologue of Rv3131; source: E. coli BL21 (DE3), pET-28a, purified (Ni-NTA)
With B1, the “stoichiometry N” value is 3.
